assay: soluble on expression in E. coli; label from the status in PepcDB or PDB records

| Sequence | soluble on expression in E. coli |
| --- | --- |
| MPSFREDALSRIRHDGDFDAVVIGGGINGIAAYRDLALQGLRVLLVERNDFSSGCSAAPSRMIHGGLRYLENGEFGLVAESLRERDALLTLAPHMVQPLPTTIPIFSMFSGLFNAAATFFGSGGKPASRGALAIKAGLTLYDFVTRKNRLLPRHEFRGAGKTLKRWPGLTPDIRYSATYYDAWISQPERLALELLIDTSADAPQSIALNYAELVRNGDEYHIRAEETDETLPIRPRIIVNATGAWIDETIGTLSAGPAAEKQKPTVSGTKGSHLIIANDGLLKALNGHMIFFENADNRVCILFPYLGRVLAGSTDIKVDRPERVRCEPDERDYILDAIRQVFPDITVDHSDIVFSFSGIRPLPRSDAAFTGRISRSHFIHRVAGDPPQLCMIGGKWTTFRAFGEQVSDEVLAFLGRKRLTGTMNRPIGGGRNFPTGAGRLPALLSEQFSIDRRRAQHLALAYGSRAFELMGFCRGRPDDAPLSQKSPITAAEILWLIRCEHVRHLTDLILRRTTLAIAGLIDADLIDAILGVAARELGWTPTRAAVERQQLTQELETFYGVTPAMLQNRCKENALEHHHHHH | soluble |
| GPGSMMILPHAEEVELRRGSSPATITSTTGRVNRVAVDTSSEENQEAVSQDRLEGRDDAGKSPTTSASPGTSSKKDRFQATSAQVKGALSTPRRAVYEFHDMFGFLVTEEEKAAEDYERRNNGYSRAYLDKWEYMMTHWANVRQDTLKRYCRRGVPQPKRCAVWQHLLQSWGMKDRFPGVYMRLHSQPLDSKDLADVIARDLDRTFPTNRLFSVKSGQGQQILRRLLHAYANYNPGVGYCQGMGFLAATLILQVEEEEDAFWAFVAVMENAKYNMKAVFAPSFPQLQCAFYVFEALMRQKMPKLYAHLHDRHPIPPSFYAVHWFMTIFTYHFNFGLVSRIWDMFFCEGWKPVYRIALALLKIEERRLLSLNTDTELLLVLKGIQESKRPVELLKTALKIRFKSAYMNQLMAEFNAQPS | not soluble |
| MEKKITLIPPPEFVQYVGGHFEEVGKEFMQYFIEIGNLKSNETVLDVGCGIGRMAVPLMNYLSDDGTYYGFDLFNKGITWCKNNISTRRNNFHFEHVDIYNQFYNPDGKEDASQYKFPYEDESFDFIFLTSVFTHLLPKELEHYVREIARVLKKDGRCFITFFLINPESSYYLNAGLSPLGFYHQIDNCYVLNKDIPNFAVAYPEEDIRTLLNKYGLEMQTPPHYGSWCGRTEHTSYQDIILAQKLEHHHHHH | not soluble |
| TIDAQLQKRAEQAFGDQAGAAVVMEVNTGEILAFVSNPEFDPALFAGRMPPEIWKQYLEDKRHPLENKALKGQYPPGSTYKIITALAGLEEGIIDDHTTVTCKGSYALGNTTFRCWDKKGHGAVDLRRALRESCDVYFYVLGEKLGIDRLSAYAQKFALGAPMGVGLDNEKGGLIPTSAWKLQRHKTRWFQGDTLSAAIGQGYVLMTPIQLASMTAAIATDGIVYRPRLVKRIIDRDGKVLREFQPEIITRADISPRSFKSVKEGLWAVVNESGGTGGMSRIPDVRVAGKTGTSQVVKLRDTRGFIPYQYRDHALFVAYAPYEHPEVAVAVVIEHGEHGGSAAAPIAGSILRAYFEGKGVIRR | not soluble |
| MGSDKIHHHHHHMAEDQTVLAIDIGGSHVKIGLSTDGEERKVESGKTMTGPEMVAAVTAMAKDMTYDVIAMGYPGPVVHNKPLREPVNLGEGWVGYDYEGAFGRPVRIVNDALMQAIGSYNGGRMLFLGLGTGLGAAMIVENVAQPMEIAHLPYRKGKTYEHYVSEAYREKKGNAKWQKRVQDVVERLSAALEPDEVVIGGGNVERLENLPPKCRRGDNAMAFEGGFRLWKNADLIV | not soluble |
| MPDTSFSNPGLFTPLQLGSLSLPNRVIMAPLTRSRTPDSVPGRLQQIYYGQRASAGLIISEATNISPTARGYVYTPGIWTDAQEAGWKGVVEAVHAKGGRIALQLWHVGRVSHELVQPDGQQPVAPSALKAEGAECFVEFEDGTAGLHPTSTPRALETDEIPGIVEDYRQAAQRAKRAGFDMVEVHAANACLPNQFLATGTNRRTDQYGGSIENRARFPLEVVDAVAEVFGPERVGIRLTPFLELFGLTDDEPEAMAFYLAGELDRRGLAYLHFNEPDWIGGDITYPEGFREQMRQRFKGGLIYCGNYDAGRAQARLDDNTADAVAFGRPFIANPDLPERFRLGAALNEPDPSTFYGGAEVGYTDYPFLDNGHDRLG | soluble |
| AHHHHHHGSSEVYRLTCIVCPLSCSIEVEIEAGKIKDIKGYTCPRGKEWAIEEIRAPKRVVMSVIPVEGGKLPTVSVKTEKPIPKDKIPELMKMLAKLKLKAPVKVGQVVGEFEGVKIIATREA | soluble |
| MPKAKGKTRRQKFGYSVNRKRLNRNARRKAARGIECSHIRHAWDHAKSVRQNLAEMGLAVDPNRAVPLRKRKVKAMEVDIEERPKELVRKPYVLNDLEAEASLPEKKGNTLSRDLIDYVRYMVENHGEDYKAMARDEKNYYQDTPKQIRSKINVYKRFYPAEWQDFLDSLQKRKMEVELEHHHHHH | not soluble |
| CGPQYRFVWKGGEGGIGDAANALDSGKIIAIKGIGGYHIACLTEDDVVLRLRKLLNRPQQPFAVMVRDLSSAERVAELSNEERAELLSPARPIVVVRKKLPFEAVAPELDTIGIMLPYTPLHHLLFQELKADYLVMTSANLPGEPMYIDESIMEKMELDGFLVHNLEIANRVDDSVVKYVGGRRLLIRRSRGFVPQPIKIDIGFN | not soluble |
| MAMHPRAGQKARQEDLHNIPALVANYYLLQPEAGNTAHKVEFGTSGHRGTADKTTFNEHHILAIAQAVADVRHEHGVTGPIFIGKDTHALSEPAFSSVLEVLIANGIEVIVQENNGYTPTPGISHAILTYNLKHADKADGIVITPSHNPPQDGGIKYNPPHGGPAEGELTQAIEDRANAYISQQLAGVKRMPIALAKQSELLKQVDLVKPYVDDLVNVVDMAAIQKAKLKIGVDPLGGSGIDYWRQIGNAYQLDLTLVSEAIDPSFQFMSLDKDGVIRMDCSSPYAMAGLLALKDEYDLAFGNDPDYDRHGIVTPKGLMNPNHFLAVCIDYLYRHRQGWAGHVAVGKTLVSSAMIDKVVADLGRELCEVPVGFKWFVDGLYSGRFGFGGEESAGASFLRQDGTPWSTDKDGIILCLLAAEITAVTGKNPQQYYDELAAKHGDFYYSRIQAVANGPQKNVLKKLSPEMVSAQTLAGDAITARLTHAPGNGAAIGGLKVTTDYGWFAARPSGTEDIYKIYCESFKGAEHLKQIESEAQQIVNQVFKDAGL | not soluble |
| MGSDKIHHHHHHMTQKLPRQATASEESLMRIFTVPEDAESTLSIIEQKLSEDLAGFLGDSIAALEKPLSEIETDFQAFKIPTQPRFVSDYTDEIMQNLVAHSVHTSAPSFIGHMTSALPYFVLPLSKMMVGLNQNLVKIETSKAFTPLERQVLGMMHHLIYAQNTDFYQSWMHSANHSLGAFCSGGTVANITALWIARNQLLKADGEFKGVTREGLLKALRYYGYDDLAILVSERGHYSLGKAVDLLGIGRDNIISIPTDSHNKVDIAKMRKAALELARKNIKVLAIVGVAGTTETGNVDPLIELAALAKELNCHFHVDAAWGGASLLSNKYRHLLAGIELADSVTIDAHKQMYVPMGAGMVLFKNPEFAHAIAHHAEYILRRGSKDLGSQTLEGSRPGMAMLVHACLQIIGLDGYEILINNSIEKARYFAEQIKAHRDFELVTEPELCLLTYRYVPAKVQAAMQVAIEQGDTAKLARFNELLDGLTQFIQKHQREQGKSFVSRTRISPARYFRQATVVFRVVLANPLTSHDILNQVLVEQSEIAALDKEFLPALLAMVAE | not soluble |
| MANLVYSPKDILQKEFKTKMMNGYDPIEVDEFLDNVIKDYEAYNKELLSLQEENSRLMAKLDQLSKAQPTPRVAQEVPKSAAVTNFDILKRLSNLEREVFGKKLDETPSTPVTPSAPSMPAEPANHDVDNAQTRQF | not soluble |
| MSLANQPIDLLMQPKWRVIDQSSLGPLFDAKQSFAMDDTLCMSVGKGVSPATARSWVHHDTIVLGIQDTRLPFLQDGISLLESEGYRVIVRNSGGLAVVLDDGVLNISLIFEDEKKGIDIDKGYEAMVELMRRMLRPYNAKIEAYEIEGSYCPGSYDLSINGKKFAGISQRRVRGGVAVQIYLCADKSGSERADLIRRFYQAALKDKQNDKKGVYPEIRPETMASLSELLQKDISVQDLMFALLTELKALSTHLYSAGLSIDEEMEFEKNLVRMAERNAKVFGEGHHHHHH | soluble |
| MAPRGRYGPPSRRSENRVVVSGLPPSGSWQDLKDHMREAGDVCYADVYRDGTGVVEFVRKEDMTYAVRKLDNTKFRSHEGETAYIRVKVDGPRSPSYGRSRSRSRSRSRSLEH | soluble |
| MKTLLPTSTAGSLPKPSWLAQPEKLWSPWKLQDEELIEGKRDALRLSLNDQQQAGIDIVSDGEQTRQHFVTTFIEHLSGVDFEKRETVRIRNRYDASVPTVVGAVSREKPVFVEDAKFLRQQTRQPIKWALPGPMTMIDTLYDSHYKSREKLAWEFAKILNQEARELEAAGVDIIQFDEPAFNVFFDEVNDWGVATLEKAIEGLKCETAVHICYGYGIKANTDWKKTLGSEWRQYEEAFPKLQKSNIDLISLECHNSRVPMDLIELIRGKKVMVGAIDVATSAIETPEEVADTLRKALRFVDADKLYPCTNCGMAPLSRQVARSKLNALGAGAEIIRRELSVAAALEHHHHHH | not soluble |
| MSLSIKNIKRIITAWKPSTFETYKKTFEKYGGSVNMHPDVVSYFMIHHDWKFDFFHYEKDGDIKGSYFLCNGKQIGIMARRSYPLSSDEVLIPFSPHARCFFPDKTNKLSIINKQNIINATWKIARKKQNCIIKESFSPKFEKTRRNEIQRFIRNGGEIKCISQLSDKEISSSYISLFHSRFGGTLPCYEYDNLLMFISHLRELMFGHVLFWDNKPCAIDIVLKSESSCNVYYDVPNGAVLNDENCMKLSPGSVLMWLNIDKARRYCQDNNKKMIYSIGAFRPEWKYKLLWSVPCKVGKCLCEGHHHHHH | soluble |
| NIVLTQSPKSMSVSVGERVTLSCKASENVDTYVFWFQQKPDQSPKLLLYGPSNRYTGVPDRFTGSGSTTDFTLTISSVQAEDLADYHCGQSYSYPYTFGGGTKLEIKRADAAPTVSIFPPSSEQLTSGGASVVCFLNNFYPKDINVKWKIDGSERQNGVLNSWTDQDSKDSTYSMSSTLTLTKDEYERHNSYTCEATHKTSTSPIVKSFNRNEC | soluble |
| MIGDGKLLASAAWDAQSLNELKAKAGQDPAANIRPVARQVEGMFVQMMLKSMREALPKDGLFSSDQTRLYTSMYDQQIAQQMTAGKGLGLADMMVKQMTSGQTMPADDAPQVPLKFSLETVNSYQNQALTQLVRKAIPKTPDSSDAPLSGDSKDFLARLSLPARLASEQSGVPHHLILAQAALESGWGQRQILRENGEPSYNVFGVKATASWKGPVTEITTTEYENGEAKKVKAKFRVYSSYLEALSDYVALLTRNPRYAAVTTAATAEQGAVALQNAGYATDPNYARKLTSMIQQLKAMSEKVSKTYSANLDNLF | not soluble |
| MSLKINVAPENPQYRIVEIFESLQGEGWNTGMPAVFVRLGKCNLACGWCDTDYLTFGMMGLSDILGRLKTYAARNIIITGGEPTIQPHLDMLLDTLKAEGYFLCLETNGLNPAPPQIDYVATSPKACYAAKYENSCIETADEVRIVADGDVLAFCENMERKIRAHHYYLSPCEQDGAMNIYDTIRQIGILNSRPDASVHWQLSVQTHKWAGIEEGHHHHHH | soluble |

Source: the DeepSol protein solubility set
